Assay results from US20150093336A1 (VIB VZW, published 2015).

T1: Mouse macrophage mannose receptor (MMR) expressed on tumor-associated macrophages of 3LL-R tumors (mouse, UniProt Q61830 20-1456)
T1 construct: Endogenous receptor on ex vivo isolated CD11b+ Ly6G- TAMs (flow cytometry) and in mouse organs (biodistribution); also called mouse MMR; mMMR
T1 sequence: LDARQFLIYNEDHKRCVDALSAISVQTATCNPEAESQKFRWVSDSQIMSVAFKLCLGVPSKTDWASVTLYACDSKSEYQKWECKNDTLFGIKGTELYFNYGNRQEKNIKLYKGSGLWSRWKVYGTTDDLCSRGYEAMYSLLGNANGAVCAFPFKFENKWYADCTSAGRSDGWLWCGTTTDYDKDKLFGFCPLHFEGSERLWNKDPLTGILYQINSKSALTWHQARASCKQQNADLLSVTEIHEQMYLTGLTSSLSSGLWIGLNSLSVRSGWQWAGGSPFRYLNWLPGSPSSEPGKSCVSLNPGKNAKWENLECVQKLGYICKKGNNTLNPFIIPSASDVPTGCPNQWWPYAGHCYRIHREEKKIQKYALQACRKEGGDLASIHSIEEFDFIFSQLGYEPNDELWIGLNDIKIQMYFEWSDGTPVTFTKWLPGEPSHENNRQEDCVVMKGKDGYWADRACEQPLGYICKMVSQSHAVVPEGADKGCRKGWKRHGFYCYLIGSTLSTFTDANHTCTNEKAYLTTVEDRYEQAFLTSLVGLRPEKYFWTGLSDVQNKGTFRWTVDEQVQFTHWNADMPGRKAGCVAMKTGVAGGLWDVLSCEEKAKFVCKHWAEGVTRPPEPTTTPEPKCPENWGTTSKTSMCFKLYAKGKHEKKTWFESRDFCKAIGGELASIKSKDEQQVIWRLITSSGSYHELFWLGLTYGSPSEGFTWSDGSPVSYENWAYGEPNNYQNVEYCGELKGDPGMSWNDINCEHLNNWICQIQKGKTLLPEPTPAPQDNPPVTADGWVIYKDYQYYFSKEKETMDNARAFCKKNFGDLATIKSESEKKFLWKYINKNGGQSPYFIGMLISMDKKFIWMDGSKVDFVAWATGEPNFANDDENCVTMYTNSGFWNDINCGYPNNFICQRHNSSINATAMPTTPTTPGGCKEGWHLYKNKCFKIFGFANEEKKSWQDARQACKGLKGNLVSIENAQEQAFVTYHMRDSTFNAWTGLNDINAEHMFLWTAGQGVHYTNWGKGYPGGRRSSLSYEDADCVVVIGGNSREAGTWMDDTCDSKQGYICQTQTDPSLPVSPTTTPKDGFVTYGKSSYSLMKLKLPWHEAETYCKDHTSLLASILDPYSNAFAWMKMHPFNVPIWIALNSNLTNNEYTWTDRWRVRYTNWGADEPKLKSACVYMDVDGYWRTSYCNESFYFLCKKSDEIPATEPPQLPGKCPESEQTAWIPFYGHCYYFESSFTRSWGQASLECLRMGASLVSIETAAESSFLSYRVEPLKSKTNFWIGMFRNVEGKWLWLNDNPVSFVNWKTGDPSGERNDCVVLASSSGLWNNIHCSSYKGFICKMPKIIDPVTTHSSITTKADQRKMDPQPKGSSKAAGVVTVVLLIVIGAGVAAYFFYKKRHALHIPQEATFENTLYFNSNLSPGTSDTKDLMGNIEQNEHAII

T2: Recombinant human MMR (R&D systems) (human, UniProt P22897 19-1383)
T2 construct: Antigen of the PE-ELISA and the SPR; also called hMMR; recombinant hMMR
T2 sequence: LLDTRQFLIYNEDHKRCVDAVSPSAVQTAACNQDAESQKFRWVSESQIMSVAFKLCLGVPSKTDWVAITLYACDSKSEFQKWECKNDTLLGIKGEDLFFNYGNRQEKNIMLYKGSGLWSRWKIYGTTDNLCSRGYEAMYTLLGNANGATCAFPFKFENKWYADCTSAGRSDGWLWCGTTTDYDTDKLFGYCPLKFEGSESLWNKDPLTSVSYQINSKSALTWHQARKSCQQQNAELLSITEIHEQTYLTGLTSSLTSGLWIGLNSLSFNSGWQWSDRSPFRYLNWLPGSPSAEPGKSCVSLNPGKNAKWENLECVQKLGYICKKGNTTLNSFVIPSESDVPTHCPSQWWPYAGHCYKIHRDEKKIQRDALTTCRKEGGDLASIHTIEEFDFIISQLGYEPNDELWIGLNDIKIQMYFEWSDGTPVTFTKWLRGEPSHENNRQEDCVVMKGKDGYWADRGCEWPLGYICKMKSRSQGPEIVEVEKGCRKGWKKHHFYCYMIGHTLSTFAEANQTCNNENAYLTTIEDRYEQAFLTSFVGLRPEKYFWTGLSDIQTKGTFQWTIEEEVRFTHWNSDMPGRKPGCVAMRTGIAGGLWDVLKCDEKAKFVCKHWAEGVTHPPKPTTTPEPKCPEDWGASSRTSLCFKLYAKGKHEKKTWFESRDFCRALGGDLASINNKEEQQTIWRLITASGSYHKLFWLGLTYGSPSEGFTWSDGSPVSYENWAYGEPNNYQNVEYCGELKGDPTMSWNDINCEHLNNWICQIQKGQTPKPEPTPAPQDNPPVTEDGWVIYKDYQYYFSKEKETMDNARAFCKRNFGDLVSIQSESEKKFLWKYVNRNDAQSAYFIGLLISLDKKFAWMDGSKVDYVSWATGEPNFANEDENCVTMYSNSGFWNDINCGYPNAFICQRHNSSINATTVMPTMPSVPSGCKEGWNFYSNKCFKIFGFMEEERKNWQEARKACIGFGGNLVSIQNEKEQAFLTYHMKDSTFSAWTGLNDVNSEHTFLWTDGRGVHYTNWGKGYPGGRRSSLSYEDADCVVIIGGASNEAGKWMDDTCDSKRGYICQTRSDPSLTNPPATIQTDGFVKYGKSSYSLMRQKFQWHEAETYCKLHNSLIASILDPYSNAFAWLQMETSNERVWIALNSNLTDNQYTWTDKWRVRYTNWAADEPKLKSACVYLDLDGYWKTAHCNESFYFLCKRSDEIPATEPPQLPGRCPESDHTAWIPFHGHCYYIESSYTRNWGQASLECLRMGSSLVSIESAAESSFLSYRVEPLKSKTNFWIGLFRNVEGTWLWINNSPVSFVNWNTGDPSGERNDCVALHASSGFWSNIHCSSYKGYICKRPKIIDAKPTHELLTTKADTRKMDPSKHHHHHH


Columns and labels:
[1] = molecular target: T1, Mouse macrophage mannose receptor (MMR) …; assay: flow cytometry on CD11b+ Ly6G- TAMs of 3LL-R tumors gated on MHCII, HA-tagged Nb detected with Alexa Fluor 488 anti-HA
Method: FIG. 6: MMR-specific Nbs bind to mouse MMR expressed on ex vivo isolated macrophages. 3LL-R tumors were induced by injecting 3×10⁶ cancer cells subcutaneously in C57Bl/6 mice. After 15 days of tumor growth, the tumors were isolated and single cell suspensions were prepared to be analyzed by flow cytometry. The CD11b+Ly6G tumor-associated macrophages (TAM) were further gated on MHCII expression. The histograms depict MMR expression as defined by Nb binding on MHCII^low and MHCII^high TAMs. Shaded histograms depict binding of the negative control Nb BCII10.
For examining specific binding of the anti-MMR sdAbs to mouse MMR, 3LL-R tumors were induced by injecting 3 E6 cancer cells subcutaneously in C57Bl/6 mice. After 15 days of tumor growth, the tumors were isolated, chopped and incubated for 25 minutes (37° C.) with 10 U/ml Collagenase type I, 400 U/ml Collagenase type IV, and 30 U/ml DNAseI (Worthington). Density gradients (Axis-Shield) were used to remove tissue debris and dead cells. sdAbs were added at 10 μg/ml to 1 E6 cells per tube. […] Binding profiles of anti-MMR sdAbs were recorded.

[2] = molecular target: T2, Recombinant human MMR (R&D systems); assay: PE-ELISA, periplasmic extract on coated human MMR, anti-HA detection

Binder | binding result [1] | binding result [2]
anti-mouse MMR sdAb clone 1 (VHH, also called anti-mMMR Nb clone 1; anti-mouse MMR clone 1) VHH: QVQLQESGGGLVQPGGSLRLSCAASGNIFSINAIGWYRQAPGKQRELVATITLSGSTNYADSVKGRFSISRDNAKNTVYLQMNSLKPEDTAVYYCNANTYSDSDVYGYWGQGTQVTVSS | binds | 
NbhMMRm4.83 (VHH, Only tested as periplasmic extract in PE-ELISA; clone carries C-terminal HA and 6xHis tag) VHH: QVQLQESGGGLVQPGGSLRLSCAASGPGFKLDYYAIAWFRQAPGKEREGVSCIGGSGSGLTTYVENSVKDRFTISRDNAQNTVYLHMNSLKPEDTGIYYCAADTYYYCSKRVWRNDYGSWGQGTQVTVSS |  | binds
